Data on five molecules can be found in US20230285581A1 (published 2023).

The target in assay [1] is T1, mouse MSR1 extracellular domain expressed with a N-terminal nonahistidine tag (mouse, UniProt P30204 79-458).
T1 construct: extracellular domain; Bought reagent; also called His9-mMSR1
T1 sequence: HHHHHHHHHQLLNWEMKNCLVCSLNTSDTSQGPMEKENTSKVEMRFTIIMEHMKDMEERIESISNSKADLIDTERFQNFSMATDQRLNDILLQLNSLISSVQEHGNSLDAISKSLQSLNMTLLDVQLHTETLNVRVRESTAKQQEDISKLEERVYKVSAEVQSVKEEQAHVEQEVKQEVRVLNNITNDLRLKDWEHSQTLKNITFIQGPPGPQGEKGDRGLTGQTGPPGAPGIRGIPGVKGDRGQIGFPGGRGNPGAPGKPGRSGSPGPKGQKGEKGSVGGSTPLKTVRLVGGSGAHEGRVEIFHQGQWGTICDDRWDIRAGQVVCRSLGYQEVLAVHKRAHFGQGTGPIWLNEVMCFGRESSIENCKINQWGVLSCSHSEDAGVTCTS
Put plainly: BLI (Octet), 25C, mAb captured; no dissociation seen, kd fixed at 5.00E-05. For orientation: Biolayer interferometry detects binding as a change in optical thickness at a sensor tip.
Procedure: Binding affinities and kinetic constants of human anti-MSR1 antibodies for different MSR1 reagents were determined using a real time, label-free bio-layer interferometry assay on an OCTET® HTX biosensor platform (Pall FortéBio Corp., Menlo Park, Calif.). The experiment was performed at 25° C. in 10 mM HEPES, 150 mM NaCl, 3 mM EDTA, 0.05% v/v Surfactant Tween-20, and 1 mg/mL BSA, pH7.4 (HBS-EBT) buffer with the plate shaking at the speed of 1000 rpm. […] The anti-MSR1 monoclonal antibodies were captured by dipping either anti-human Fc (AHC) or anti-mouse Fc (AMC) Octet biosensors in wells containing 5 μg/mL or 10 μg/mL of anti-MSR1 monoclonal antibody for 45-90 seconds. […] The binding of different MSR1 reagents to the captured anti-MSR1 monoclonal antibody was measured for 4 minutes and the dissociation of monoclonal antibody bound MSR1 reagent was monitored for 8-10 minutes in HBS-EBT buffer.
The association rate (kₐ) and dissociation rate (kd) were determined by fitting the real-time binding sensorgrams to a 1:1 binding model with mass transport limitation using Scrubber 2.0c curve-fitting software. Binding dissociation equilibrium constant (KD) and dissociative half-life (t½) were calculated from the kinetic rates as:

The target of assay [2] is T2, full length monkey MSR1 on HEK293.mfMSR1 cells (Macaca fascicularis, UniProt A0A2K5UWE2 1-451).
T2 construct: whole, on cells
T2 sequence: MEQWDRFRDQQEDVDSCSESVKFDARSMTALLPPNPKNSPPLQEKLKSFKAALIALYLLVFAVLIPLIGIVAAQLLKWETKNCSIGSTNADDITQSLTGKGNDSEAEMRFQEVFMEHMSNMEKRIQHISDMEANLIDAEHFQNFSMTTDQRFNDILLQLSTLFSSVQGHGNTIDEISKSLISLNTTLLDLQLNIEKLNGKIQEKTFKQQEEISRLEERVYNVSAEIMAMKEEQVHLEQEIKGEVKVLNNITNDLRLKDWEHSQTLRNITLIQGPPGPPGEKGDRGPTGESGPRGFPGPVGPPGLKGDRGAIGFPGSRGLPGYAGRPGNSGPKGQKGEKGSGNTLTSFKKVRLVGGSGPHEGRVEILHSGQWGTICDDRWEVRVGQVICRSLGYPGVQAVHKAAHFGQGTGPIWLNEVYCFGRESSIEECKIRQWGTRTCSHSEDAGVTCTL
Put plainly: ECL cell binding, HEK293.mfMSR1 cells.

As usually defined, the t½ is the time in which the quantity being followed falls by half.

B1: H1H21234N-N297Q (antibody, human IgG1, V domains shown)
VH: QVQLQESGPGLVKPSETLSLTCTVTGGSISRNYWSWIRQPPGKGLEWIGYIYYSGSIDYNPSLKSRVTISVDTSKNQFSLKLSSMTAADTAVYYCARDRWNWKYGMDVWGQGTTVIVSS
VL: EIVLTQSPGTLSLSPGERATLSCRASQTVRNNYLAWYHQKPGQAPRLLIYGASSRATGIPDRFSGSGSGTDFTLTISRLEPEDFTVYYCHQYGNSPWTFGQGTKMEIKR
notes: human IgG1 Fc with N297Q
For B1, in assay [1], the t½ was no less than 3.85 h.

B2: H1H21234N (antibody, human IgG1, V domains shown)
VH: B1 VH
VL: B1 VL
notes: original human IgG1 Fc
The molecule B2 yielded a t½ in assay [1] of no less than 3.85 h.

B3: H1H27766P2-N297Q (antibody, human IgG1, V domains shown)
VH: EVQLVESGGGLVQPGGSLRLSCAASGFTFSSFAMSWVRQAPGKELEWVSSISGRGGSTYYADSVRGRFTISRDNSKITLYLQMNSLRAEDTAVYYCAKDIVFRYTSSAYWYFDLWGRGTLVTVSS
VL: not shown
notes: human IgG1 Fc with N297Q; also called H1H27766P-N297Q
Turning to B3, in assay [2], the “ratio of 11 nM antibody binding signal (RLU) to isotype control” value (“ratio of 11 nM antibody binding signal” for short) stood at 13 ratio.

B4: H2aM21229N (antibody, mouse IgG2a, V domains shown)
VH: EVQLVESGGGLVKPGGSLRLSCAASGFTFSRYSMNWVRQAPGKGLEWVSSISSSSSYIYYGDTVKGRFTISRDNAKKSLYLQMNSLRAEDTAVYYCVRDRGQLVLYFDYWGQGTLVTVSS
VL: DIQMTQSPASLSTSIRDRVTITCRASLSISSFLNWFQQRPGKAPKLLIYVASNLQSGVPSRFSDSGSGTDFTLTISSLQPEDFATYYCQQNYSTPPITFGQGTRLEIK
notes: mouse IgG2a Fc (H2aM)
As to B4, in assay [2], the “ratio of 11 nM antibody binding signal” value amounted to 27 ratio.

B5: H1xH29282P2 (antibody, V domains shown)
VH: EVQLVESGGGLVQPGGSLRLSCAASGFTFSTYAMSWVRQAPGKGLEWVSTISGRSDITYFADSVKGRFTVSRDNSKTTLYLQMNSLRAEDTAVYYCATDDDLPLDYWGQGTLVTVSS
VL: not shown
notes: the prefix H1xH is not explained for the anti-MSR1 antibodies
As to B5, the “ratio of 11 nM antibody binding signal” value in assay [2] turned out to be 1 ratio.
